This experiment addresses motavizumab. The experiment can be described thus: SPR. (Surface plasmon resonance follows binding to a sensor surface in real time, without labels.)

“RSV F glycoprotein S275H, on virions of recombinant RSV-A2 mKate2 (natural protein)” had a fold reduction of the on-rate (ka) against WT greater than 6 fold.

These data come from paper doi:10.1101/2022.02.25.482063.
